T1: murine VEGF165 (murine, UniProt Q00731-2 27-190)
T1 construct: also called mVEGF165; rMu-VEGF165
T1 sequence (looked up): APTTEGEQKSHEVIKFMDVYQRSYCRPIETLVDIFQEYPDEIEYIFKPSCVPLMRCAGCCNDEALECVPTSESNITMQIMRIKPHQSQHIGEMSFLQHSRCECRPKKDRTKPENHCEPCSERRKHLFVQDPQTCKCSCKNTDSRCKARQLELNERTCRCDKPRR

T2: hVEGF121-G88S (human, UniProt P15692-9 27-147, G88S)
T2 construct: Transiently expressed in CHO-K1 cells; culture supernatant used
T2 sequence (looked up): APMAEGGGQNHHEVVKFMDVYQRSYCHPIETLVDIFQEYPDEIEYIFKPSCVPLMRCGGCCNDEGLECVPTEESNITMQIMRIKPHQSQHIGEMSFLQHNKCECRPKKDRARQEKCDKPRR

T3: hVEGF121-M81A (human, UniProt P15692-9 27-147)
T3 construct: Transiently expressed in CHO-K1 cells; culture supernatant used
T3 sequence (looked up): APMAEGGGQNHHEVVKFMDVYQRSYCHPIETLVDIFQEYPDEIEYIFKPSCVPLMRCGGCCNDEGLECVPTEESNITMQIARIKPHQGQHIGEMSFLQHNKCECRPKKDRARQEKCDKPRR

T4: hVEGF121-Q89A (human, UniProt P15692-9 27-147, Q89A)
T4 construct: Transiently expressed in CHO-K1 cells; culture supernatant used
T4 sequence (looked up): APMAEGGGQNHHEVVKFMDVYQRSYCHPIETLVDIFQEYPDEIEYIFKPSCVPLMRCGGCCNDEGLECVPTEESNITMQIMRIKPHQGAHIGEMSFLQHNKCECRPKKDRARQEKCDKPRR

T5: hVEGF121-G92A (human, UniProt P15692-9 27-147, G92A)
T5 construct: Transiently expressed in CHO-K1 cells; culture supernatant used
T5 sequence (looked up): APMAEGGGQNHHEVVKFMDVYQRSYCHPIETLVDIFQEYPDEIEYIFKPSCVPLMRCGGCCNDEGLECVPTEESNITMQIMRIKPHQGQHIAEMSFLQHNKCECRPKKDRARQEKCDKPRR

T6: wild-type hVEGF121 (human, UniProt P15692-9 27-147)
T6 sequence (looked up): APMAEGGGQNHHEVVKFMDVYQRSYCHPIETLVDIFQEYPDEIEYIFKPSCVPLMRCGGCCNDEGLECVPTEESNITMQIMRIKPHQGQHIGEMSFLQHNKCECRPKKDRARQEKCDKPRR


What was measured:
murine VEGF165 [1] = target: T1, murine VEGF165; assay: sandwich ELISA, antibody coated; epitope ELISA, fold over CHO background: at background, no binding seen
Experimental: (§1) The plate was blocked with 30% ChemiBlock™ reagent (Millipore) in PBS for one hour at room temperature, and 30, 60, or 100 μl of CHO-K1 culture supernatant for each mutant, or 1 μg/ml of wild-type hVEGF₁₂₁, recombinant hVEGF₁₆₅, or recombinant mVEGF₁₆₅, was added to appropriate wells. After one hour of incubation, the plate was washed and incubated with a biotinylated goat polyclonal anti-VEGF antibody for one hour at room temperature. Detection was performed with HRP-conjugated streptavidin, followed by TMB chromogenic substrate (Calbiochem) using manufacturer protocol.

murine VEGF165 [2] = target: T1, murine VEGF165; assay: Biacore; IgG2, Biacore: weak binding, KD >100 nM
hVEGF121-G88S [3] = target: T2, hVEGF121-G88S; assay: sandwich ELISA, antibody coated, CHO-K1 supernatant
human VEGF165 [4] = target: T7, human VEGF165 (human, UniProt P15692 207-395); assay: Biacore, IgG2 (summary table); lower end of the range of IgG2 Biacore results
T7 construct: Recombinant (R&D Systems 293-VE; sf21- or HEK 293-expressed depending on the assay); Biotinylated in the DELFIA assay; also called hVEGF165; rHu-VEGF165
Experimental: (§2) Dilution and running buffer for these experiments was HBS-EP (Biacore) with 1:50 dilution of Chemiblocker® (Chemicon). […] Antibody concentrations were approximately 0.5 μg/ml. hVEGF₁₆₅ expressed from sf21 cells was injected over five minutes at 30 μl/minute using the Kinject feature with 15 minute dissociation over fc1 and 2. […] Regenerations were performed with two injections of 100 mM HCl at 50 μl/minutes for twelve seconds each. Data was processed in Scrubber2 and fit by a 1:1 Langmuir interaction model after double referencing of the control flow cell and blank injections.

hVEGF121-M81A = target: T3, hVEGF121-M81A; assay: sandwich ELISA, antibody coated
Experimental: (§3) Mutants were transiently expressed in CHO-K1 cells, and cell supernatants were collected for binding analysis by ELISA.
as §1

hVEGF121-Q89A = target: T4, hVEGF121-Q89A; assay: sandwich ELISA, antibody coated
Experimental: as §3, §1

human VEGF165 [5] = target: T7, human VEGF165; assay: sandwich ELISA, antibody coated
Experimental: as §3, §1

hVEGF121-G92A = target: T5, hVEGF121-G92A; assay: sandwich ELISA, antibody coated
Experimental: as §3, §1

hVEGF121-G88S [6] = target: T2, hVEGF121-G88S; assay: sandwich ELISA, antibody coated
Experimental: as §3, §1

wild-type hVEGF121 = target: T6, wild-type hVEGF121; assay: sandwich ELISA, antibody coated
Experimental: as §3, §1

murine VEGF165 [7] = target: T1, murine VEGF165; assay: Biacore 2000, mVEGF165 amine-coupled on C1 chip, antibody injected
Experimental: (§4) The VEGF binding affinity of these IgGs was tested on a Biacore 2000® by injecting the antibodies over a very low density antigen surface. Human or murine VEGF₁₆₅ was immobilized via standard amine coupling methods to flow cells on a C1 (planar carboxy surface) chip. Approximately 85 RU of each antigen was immobilized and a reference flow cell was activated and blocked. Antibodies were injected over the chip surface for 400 seconds at two different concentrations, after which dissociation was monitored. Data was analyzed by Scrubber® using double referencing and fitting with a 1:1 interaction. Regenerations were performed with 90 mM HCl with 500 mM NaCl.

human VEGF165 [8] = target: T7, human VEGF165; assay: Biacore 2000, hVEGF165 amine-coupled on C1 chip, antibody injected, 1:1 fit
Experimental: as §4
Target sequence in this assay (P15692 other isoform, or with tags, fused parts or gaps limits assumed): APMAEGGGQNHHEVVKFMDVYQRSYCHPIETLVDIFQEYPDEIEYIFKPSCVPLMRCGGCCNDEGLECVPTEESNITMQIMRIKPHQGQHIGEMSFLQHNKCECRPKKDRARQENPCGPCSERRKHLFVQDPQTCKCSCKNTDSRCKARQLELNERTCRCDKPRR

human VEGF165 [9] = target: T7, human VEGF165; assay: Biacore competition, inhibition of hVEGF165 binding to immobilized VEGF-R1
Experimental: (§5) VEGF receptor (R&D Systems) was immobilized on the CM5 chip at a density of approximately […] via amine coupling (Biacore). VEGF-R2 was immobilized on fc2 and VEGF-R1 was immobilized on fc4. Flow cells 1 and 3 served as references, and were activated and blocked in the same manner as the receptor immobilized flow cells. […] Samples were incubated for at least one hour prior to initiation of the Biacore analysis run. […] Samples were injected at 10 μl/minute for 1.5 minutes over all flow cells.
(§6) For data analysis, the slope of a linear portion of association (30 seconds to one minute) of the association phase was determined with a linear fit. […] Data was plotted in GraphPad Prism and fit with a sigmoidal dose response curve to calculate the EC₅₀.

human VEGF165 [10] = target: T7, human VEGF165; assay: cell-based or functional assay
Target sequence in this assay (P15692 other isoform, or with tags, fused parts or gaps limits assumed): as above

human VEGF165 [11] = target: T7, human VEGF165; assay: Biacore 2000, IgG2 captured on Protein A/G, hVEGF165 injected, 1:1 fit
Experimental: as §2

human VEGF165 [12] = target: T7, human VEGF165; assay: cell-based or functional assay; remark: listed apart in the source
human VEGF165 [13] = target: T7, human VEGF165; assay: cell-based or functional assay; remark: listed apart in the source
human VEGF165 [14] = target: T7, human VEGF165; assay: Biacore competition, inhibition of hVEGF165 binding to immobilized VEGF-R2
Experimental: as §5, §6

human VEGF165 [15] = target: T7, human VEGF165; assay: Biacore, IgG2 (summary table)
Experimental: as §2

Binder	fold binding over CHO background (murine VEGF165 [1])	Kd (murine VEGF165 [2])	binding result (hVEGF121-G88S [3])	Raw data (ELISA signal) (hVEGF121-M81A)	fold binding over CHO background (hVEGF121-M81A)	Raw data (ELISA signal) (hVEGF121-Q89A)	fold binding over CHO background (hVEGF121-Q89A)	Raw data (ELISA signal) (human VEGF165 [5])	fold binding over CHO background (human VEGF165 [5])	Raw data (ELISA signal) (hVEGF121-G92A)	fold binding over CHO background (hVEGF121-G92A)	Raw data (ELISA signal) (hVEGF121-G88S [6])	fold binding over CHO background (hVEGF121-G88S [6])	Raw data (ELISA signal) (wild-type hVEGF121)	fold binding over CHO background (wild-type hVEGF121)	EC50 (human VEGF165 [9])	Kd (human VEGF165 [11])	koff (human VEGF165 [11])	kon (human VEGF165 [11])	Inhibition of HUVEC proliferation, EC50 (µg/ml), HEK 293 hVEGF165 (human VEGF165 [12])	further results
XPA.10.064 IgG2 (antibody, V domains shown, Converted to IgG with gamma-2 heavy chain constant region; Expressed in 293E cells; also called parental XPA.10.064; VPA.10.064) VH: EVQLVQSGAEVRKPGASVKVSCKASGYSFTGHYIHWVRQAPGQGLEWMGWINPYSGGTNFPREFQGRVTMTRDTSVNTVYMELTRLTSDDTSVYYCARDHRIVGGLDYWGQGTLVTVSS VL: SYVLTQPPSASGTPGQRVTISCSGSSSNIGINYVYWYQQLPGTAPKLLIYRNDQRPSGVPDRFSGSKSGTSASLAISGLRSEDEADYYCATWDDSLSGVVFGGGTKVTVL	0.7 fold	> 100 nM	no binding	0.868	9.5 fold	0.319	3.5 fold	2.09	23 fold	2.08	22.8 fold	0.0778	0.9 fold	2.65	29.1 fold	0.159 µg/mL	1.24 nM	0.000286 s⁻¹	230000 M⁻¹ s⁻¹	0.66 µg/mL	Kd (human VEGF165 [4]): 1.24 to 1.71 nM; Kd (murine VEGF165 [7]): 197 nM; Kd (human VEGF165 [8]): 1.71 nM; koff (human VEGF165 [8]): 0.000335 s⁻¹; kon (human VEGF165 [8]): 193000 M⁻¹ s⁻¹; HUVEC proliferation, geometric mean IC50 (human VEGF165 [10]): 1.32 nM; HPP: sf21-hVEGF165, IgG2 (IC50) (human VEGF165 [13]): 0.15 µg/mL; EC50 (human VEGF165 [14]): 0.129 µg/mL
XPA.10.072 IgG2 (antibody, V domains shown, IgG2 (gamma-2 constant region); also called XPA.072; VPA.10.072) VH: RLQLVQSGAEVRKPGASVKVSCKASGYSFTGHYIHWARQAPGQGLEWMGWINPYSGGTNFPREFQGRVTMTRDTSVNTVYMELTRLTSDDTSVYYCARDHRIVGGLDYWGQGTLVTVSS VL: QSVLTQPPSASGTPGQRVTISCSGSSSNLGSNFVYWYQQLPGTAPKLLIYRNHQRPSGVPDRFSGSKSGTSASLAISGLRSEDEADYYCASWDDSLRVVVFGGGTKLTVL	1.1 fold	> 100 nM	no binding	1.22	13.4 fold	0.296	3.3 fold	2.66	29.2 fold	2.78	30.5 fold	0.0951	1 fold	2.9	31.8 fold	0.121 µg/mL	1.66 nM	0.000279 s⁻¹	168000 M⁻¹ s⁻¹	0.68 µg/mL	Kd (human VEGF165 [15]): 1.66 to 1.7 nM; HPP: sf21-hVEGF165, IgG2 (IC50) (human VEGF165 [13]): 0.24 µg/mL; HUVEC Proliferation Potency (HPP): HEK293-hVEGF165, IgG2 (IC50) (human VEGF165 [13]): 0.68 µg/mL; EC50 (human VEGF165 [14]): 0.173 µg/mL
